Data on eight sequences can be found in the supplement of paper PMC10065799, “High-throughput profiling of sequence recognition by tyrosine kinases and SH2 domains using bacterial peptide display” (eLife, 2023).

The target of one data set is c-Src SH2. Kind of data set: SH2 binding enrichment of the phosphorylated peptide, bacterial display (enrichment ratio); higher = better substrate or ligand; peptides without Tyr show the background.
The target in a further data set is SHP2-C SH2. The description is as above.
The next data set concerns the target Grb2 SH2 (UniProt P62993). Described as above.
For a further data set, the target named is Jak2 (UniProt O60674). As to the kind of experiment: phosphorylation enrichment, bacterial display (enrichment ratio); higher = better substrate or ligand; peptides without Tyr show the background.
In the next data set the target is FGFR3 (UniProt P22607). Described as above.
For the next data set, the system named is AncSZ. The description is as above.
The test system of a further data set is c-Src. The description is as above.
The target of the next data set is MERTK (UniProt Q12866). The description is as above.
A further data set deals with EPHB2 (UniProt P29323). The data set is described as above.
In a further data set the test system is Fer (mouse). The description is as above.
A further data set has as its system c-Abl (mouse). The description is as above.
The target of a further data set is Hck (UniProt P08631). The data set is described as above.
Another data set has as its target FGFR1 (UniProt P11362). The data set is described as above.
Another data set has as its target Fyn (UniProt P06241). Described as above.
Another data set deals with EPHB1 (UniProt P54762). The data set is described as above.
For a further data set, the target named is Fes (UniProt P07332). The description is as above.
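Wherever SH2 binding enrichment of the phosphorylated peptide, bacterial display is given: peptide library displayed on the E. coli surface as eCPX fusions, selected cells deep-sequenced, score is each peptide's frequency after selection divided by its frequency in the input.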
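Wherever phosphorylation enrichment, bacterial display is given: 11-residue human phosphosite peptides and single-mutation variants displayed on the E. coli surface, counted by deep sequencing, each peptide's frequency after selection divided by its frequency in the unselected input library; frequency after pTyr selection over input frequency; kinase dosed for 20-30% of maximal phosphorylation in three min.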

Chain of FGFR1 (P11362 whole entry, looked up): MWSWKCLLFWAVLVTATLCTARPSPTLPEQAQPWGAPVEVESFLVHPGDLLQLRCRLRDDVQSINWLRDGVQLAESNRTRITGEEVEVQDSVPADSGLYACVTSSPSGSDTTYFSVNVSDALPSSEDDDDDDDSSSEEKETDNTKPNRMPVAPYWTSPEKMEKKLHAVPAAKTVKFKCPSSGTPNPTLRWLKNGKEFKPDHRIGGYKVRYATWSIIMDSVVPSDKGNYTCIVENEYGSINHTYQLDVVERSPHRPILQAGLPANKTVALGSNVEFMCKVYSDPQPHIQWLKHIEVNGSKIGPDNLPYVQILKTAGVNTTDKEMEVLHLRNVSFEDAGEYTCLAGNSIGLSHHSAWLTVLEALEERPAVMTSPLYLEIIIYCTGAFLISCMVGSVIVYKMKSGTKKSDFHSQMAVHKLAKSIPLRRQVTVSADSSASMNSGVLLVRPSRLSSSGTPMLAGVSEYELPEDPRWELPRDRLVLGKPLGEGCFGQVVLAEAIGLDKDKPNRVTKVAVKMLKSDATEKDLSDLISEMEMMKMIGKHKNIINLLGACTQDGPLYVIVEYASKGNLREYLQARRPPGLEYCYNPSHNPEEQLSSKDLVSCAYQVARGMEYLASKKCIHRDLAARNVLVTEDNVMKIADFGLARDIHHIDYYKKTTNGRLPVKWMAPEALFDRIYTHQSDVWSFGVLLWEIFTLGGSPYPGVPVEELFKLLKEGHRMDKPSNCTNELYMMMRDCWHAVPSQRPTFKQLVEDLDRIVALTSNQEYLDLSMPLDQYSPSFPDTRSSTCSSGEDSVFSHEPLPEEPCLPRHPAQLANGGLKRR
Chain of EPHB2 (P29323 whole entry, looked up): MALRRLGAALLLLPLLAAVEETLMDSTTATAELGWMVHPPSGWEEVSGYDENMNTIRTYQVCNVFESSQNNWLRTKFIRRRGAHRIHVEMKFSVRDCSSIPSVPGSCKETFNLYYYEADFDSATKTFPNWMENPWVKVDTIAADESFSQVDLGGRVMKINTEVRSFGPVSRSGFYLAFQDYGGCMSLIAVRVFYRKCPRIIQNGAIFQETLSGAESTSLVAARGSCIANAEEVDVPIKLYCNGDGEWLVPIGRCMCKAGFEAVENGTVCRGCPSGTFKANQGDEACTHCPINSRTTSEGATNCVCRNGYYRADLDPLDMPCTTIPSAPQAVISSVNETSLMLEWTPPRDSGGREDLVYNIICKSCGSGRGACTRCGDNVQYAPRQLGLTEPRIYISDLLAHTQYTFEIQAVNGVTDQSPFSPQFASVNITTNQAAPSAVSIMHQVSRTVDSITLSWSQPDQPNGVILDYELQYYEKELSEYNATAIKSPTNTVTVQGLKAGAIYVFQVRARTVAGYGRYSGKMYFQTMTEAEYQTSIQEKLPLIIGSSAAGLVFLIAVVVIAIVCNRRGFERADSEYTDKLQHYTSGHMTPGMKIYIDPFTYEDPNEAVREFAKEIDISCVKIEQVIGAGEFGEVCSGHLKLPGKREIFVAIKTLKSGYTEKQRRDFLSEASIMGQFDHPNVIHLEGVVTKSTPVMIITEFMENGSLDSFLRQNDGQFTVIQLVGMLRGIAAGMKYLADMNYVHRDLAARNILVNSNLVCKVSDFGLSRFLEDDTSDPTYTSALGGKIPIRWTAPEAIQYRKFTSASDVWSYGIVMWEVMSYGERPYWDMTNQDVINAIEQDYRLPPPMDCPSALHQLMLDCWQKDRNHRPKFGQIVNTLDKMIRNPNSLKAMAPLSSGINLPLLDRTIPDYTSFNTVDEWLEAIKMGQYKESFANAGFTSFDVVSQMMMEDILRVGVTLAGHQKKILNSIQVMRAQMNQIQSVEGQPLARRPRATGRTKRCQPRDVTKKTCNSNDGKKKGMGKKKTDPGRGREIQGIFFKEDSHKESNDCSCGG
Chain of Jak2 (O60674 whole entry, looked up): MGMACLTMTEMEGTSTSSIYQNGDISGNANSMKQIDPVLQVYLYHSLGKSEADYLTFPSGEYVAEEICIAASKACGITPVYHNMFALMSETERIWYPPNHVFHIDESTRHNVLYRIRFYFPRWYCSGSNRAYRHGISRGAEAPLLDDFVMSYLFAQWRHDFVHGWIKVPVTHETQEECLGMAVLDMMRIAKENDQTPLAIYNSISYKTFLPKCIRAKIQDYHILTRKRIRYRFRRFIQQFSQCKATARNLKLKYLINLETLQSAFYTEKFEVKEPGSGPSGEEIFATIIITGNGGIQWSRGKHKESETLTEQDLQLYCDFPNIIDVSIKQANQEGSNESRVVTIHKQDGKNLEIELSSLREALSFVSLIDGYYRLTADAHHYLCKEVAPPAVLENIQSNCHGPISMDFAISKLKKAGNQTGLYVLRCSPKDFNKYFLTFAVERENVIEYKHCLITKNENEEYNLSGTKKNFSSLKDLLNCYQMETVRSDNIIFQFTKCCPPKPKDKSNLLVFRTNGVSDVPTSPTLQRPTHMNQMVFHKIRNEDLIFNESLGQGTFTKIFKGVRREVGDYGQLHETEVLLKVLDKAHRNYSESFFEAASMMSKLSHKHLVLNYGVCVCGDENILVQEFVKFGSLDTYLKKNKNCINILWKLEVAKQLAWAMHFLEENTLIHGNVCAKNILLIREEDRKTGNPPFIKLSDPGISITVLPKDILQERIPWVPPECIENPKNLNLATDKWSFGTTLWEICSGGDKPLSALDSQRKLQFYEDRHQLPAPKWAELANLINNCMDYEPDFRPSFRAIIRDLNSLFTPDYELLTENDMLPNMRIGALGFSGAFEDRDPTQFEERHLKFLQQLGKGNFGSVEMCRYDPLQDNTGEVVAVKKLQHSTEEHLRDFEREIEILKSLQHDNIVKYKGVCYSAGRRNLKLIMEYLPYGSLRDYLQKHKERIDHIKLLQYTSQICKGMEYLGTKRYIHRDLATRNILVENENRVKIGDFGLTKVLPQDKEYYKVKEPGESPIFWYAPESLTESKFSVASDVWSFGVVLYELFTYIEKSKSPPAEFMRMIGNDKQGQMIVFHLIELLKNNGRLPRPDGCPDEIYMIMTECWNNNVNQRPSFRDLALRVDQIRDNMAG
Chain of Fyn (P06241 whole entry, looked up): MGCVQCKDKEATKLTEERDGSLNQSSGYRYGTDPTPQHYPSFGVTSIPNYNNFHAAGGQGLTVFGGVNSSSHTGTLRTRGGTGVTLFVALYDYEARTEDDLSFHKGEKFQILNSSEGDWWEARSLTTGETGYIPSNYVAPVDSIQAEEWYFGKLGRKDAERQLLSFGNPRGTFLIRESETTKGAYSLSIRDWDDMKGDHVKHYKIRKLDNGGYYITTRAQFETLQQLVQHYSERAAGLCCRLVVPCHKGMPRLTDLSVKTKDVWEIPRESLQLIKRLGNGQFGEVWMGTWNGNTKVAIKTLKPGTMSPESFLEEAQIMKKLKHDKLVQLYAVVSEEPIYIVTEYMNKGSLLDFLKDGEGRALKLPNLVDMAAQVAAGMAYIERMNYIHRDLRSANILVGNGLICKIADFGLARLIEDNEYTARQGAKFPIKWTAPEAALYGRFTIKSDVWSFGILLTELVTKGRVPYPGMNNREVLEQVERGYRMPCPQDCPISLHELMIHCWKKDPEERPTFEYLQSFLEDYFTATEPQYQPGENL
Chain of Fes (P07332 whole entry, looked up, the tested form may be a part): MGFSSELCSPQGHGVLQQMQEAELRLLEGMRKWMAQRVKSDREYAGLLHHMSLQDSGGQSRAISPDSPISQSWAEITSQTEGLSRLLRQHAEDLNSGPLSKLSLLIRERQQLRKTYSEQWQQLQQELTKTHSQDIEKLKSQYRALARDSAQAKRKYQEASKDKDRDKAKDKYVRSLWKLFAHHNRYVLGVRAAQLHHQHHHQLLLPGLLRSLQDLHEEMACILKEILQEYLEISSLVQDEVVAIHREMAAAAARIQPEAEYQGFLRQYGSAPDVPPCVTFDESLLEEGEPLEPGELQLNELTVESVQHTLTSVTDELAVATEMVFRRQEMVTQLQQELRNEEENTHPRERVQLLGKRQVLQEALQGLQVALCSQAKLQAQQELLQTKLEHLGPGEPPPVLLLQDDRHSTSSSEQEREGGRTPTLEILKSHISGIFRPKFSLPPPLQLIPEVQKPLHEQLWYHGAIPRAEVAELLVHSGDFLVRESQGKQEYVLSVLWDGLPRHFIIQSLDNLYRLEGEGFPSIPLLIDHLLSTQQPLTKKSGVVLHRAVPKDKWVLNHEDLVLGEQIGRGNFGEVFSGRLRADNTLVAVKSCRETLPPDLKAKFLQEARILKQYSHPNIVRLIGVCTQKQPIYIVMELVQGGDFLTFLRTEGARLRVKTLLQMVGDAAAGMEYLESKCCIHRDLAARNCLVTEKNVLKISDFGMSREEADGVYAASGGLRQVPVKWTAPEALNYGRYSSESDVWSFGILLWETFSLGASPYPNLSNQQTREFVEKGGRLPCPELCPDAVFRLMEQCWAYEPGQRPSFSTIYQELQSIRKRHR
Chain of Grb2 SH2 (P62993 whole entry, looked up): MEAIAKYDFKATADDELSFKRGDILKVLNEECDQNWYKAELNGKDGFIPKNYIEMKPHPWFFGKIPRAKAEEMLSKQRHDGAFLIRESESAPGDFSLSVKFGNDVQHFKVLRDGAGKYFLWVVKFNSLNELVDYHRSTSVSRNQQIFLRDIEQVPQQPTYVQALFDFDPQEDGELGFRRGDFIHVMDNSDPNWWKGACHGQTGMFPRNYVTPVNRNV

Turning to VIEQRYNETWL [SLC2A4_Y56_S55R], the results for the SH2 binding enrichment with c-Src SH2, with SHP2-C SH2 and in the data set with Grb2 SH2 were 0.605, 0.497 and 0.92, respectively. Also, the phosphorylation enrichment is 0.744 in the data set with Jak2; 0.553 with FGFR3; 0.809 in the data set with AncSZ; 0.402 in the data set on c-Src; 0.381 with MERTK; 0.519 with EPHB2. Further, the phosphorylation enrichment amounted to 0.457 with Fer (mouse); 0.659 in the data set with c-Abl (mouse); 0.468 in the data set with Hck; 0.516 with FGFR1; 0.538 with Fyn; 0.467 with EPHB1. Moreover, the phosphorylation enrichment with Fes came out at 1.05.
Regarding VIESSYQVAKA [CPT1B_Y534], the SH2 binding enrichment with c-Src SH2 turned out to be 0.537; with SHP2-C SH2 it was 0.782; in the data set with Grb2 SH2 it was 0.906. Also, the phosphorylation enrichment is 0.535 with Jak2; 0.404 with FGFR3; 0.7 with AncSZ; 0.483 in the data set with c-Src; 0.44 with MERTK; 0.483 in the data set with EPHB2. Besides, the phosphorylation enrichment in the data set on Fer (mouse) stood at 0.448; in the data set with c-Abl (mouse) it was 0.558; with Hck, 0.577; in the data set with FGFR1 it was 0.489; with Fyn, 0.457; with EPHB1 it was 0.454. Also, in the data set with Fes, the phosphorylation enrichment worked out at 0.815.
Regarding VIEYSYTSADG [DHCR7_Y382_C380Y], the SH2 binding enrichment with c-Src SH2 worked out at 6.21; in the data set with SHP2-C SH2, 3.63; with Grb2 SH2, 0.927. Further, the phosphorylation enrichment is 0.897 with Jak2; 0.82 with FGFR3; 1.34 with AncSZ; 0.536 in the data set with c-Src; 0.365 with MERTK; 0.633 with EPHB2. Further, the phosphorylation enrichment is 0.538 in the data set with Fer (mouse); 0.686 in the data set with c-Abl (mouse); 0.557 in the data set with Hck; 0.711 with FGFR1; 0.497 with Fyn; 0.699 with EPHB1. The phosphorylation enrichment with Fes came out at 1.19.
For VISNAYVDLSP [HSD17B4_Y602_A606S], the SH2 binding enrichment was 3.09 in the data set with c-Src SH2, 0.753 with SHP2-C SH2 and 0.593 in the data set with Grb2 SH2. The phosphorylation enrichment in the data set with Jak2 came out at 0.829; with FGFR3, 0.62; with AncSZ, 1.11; in the data set with c-Src, 0.525; with MERTK, 0.518; with EPHB2, 0.523. Further, the phosphorylation enrichment in the data set with Fer (mouse) stood at 0.511; in the data set with c-Abl (mouse), 0.711; with Hck, 0.542; with FGFR1, 0.896; with Fyn it was 0.534; with EPHB1 it was 0.443. The phosphorylation enrichment with Fes was determined as 0.818.
In the case of VKANTYEKYWL [GATM_Y100_P105L], the figures for the SH2 binding enrichment in the data set with c-Src SH2, with SHP2-C SH2 and with Grb2 SH2 were 1.14, 0.687 and 0.993, respectively. The phosphorylation enrichment was 0.733 with Jak2; 0.541 with FGFR3; 0.794 with AncSZ; 0.652 with c-Src; 0.875 with MERTK; 0.5 with EPHB2. The phosphorylation enrichment with Fer (mouse) is 2.47; in the data set with c-Abl (mouse) it was 0.644; in the data set with Hck, 0.583; with FGFR1, 0.582; in the data set with Fyn, 0.668; with EPHB1, 0.661. In the data set with Fes, the phosphorylation enrichment came to 0.837.
For the sequence VKANTYENFWP [GATM_Y100_K102N_YF], the SH2 binding enrichment in the data set with c-Src SH2 worked out at 2.84; with SHP2-C SH2 it was 1.58; with Grb2 SH2, 12.5. The phosphorylation enrichment in the data set with Jak2 came out at 0.954; with FGFR3, 0.661; with AncSZ it was 0.926; in the data set with c-Src, 4.08; with MERTK, 3.58; in the data set with EPHB2 it was 2.03. Besides, the phosphorylation enrichment in the data set with Fer (mouse) was found to be 2.02; in the data set on c-Abl (mouse), 0.904; in the data set with Hck it was 2.1; with FGFR1, 0.415; in the data set with Fyn, 3.61; with EPHB1, 3.6. Also, the phosphorylation enrichment with Fes worked out at 1.04.
Consider VKANTYENYWP [GATM_Y100_K102N], for which the SH2 binding enrichment in the data set with c-Src SH2 worked out at 3.55; in the data set with SHP2-C SH2, 1.9; with Grb2 SH2, 13.2. Besides, the phosphorylation enrichment amounted to 0.994 with Jak2; 0.818 with FGFR3; 0.893 in the data set with AncSZ; 3.07 with c-Src; 2.41 in the data set with MERTK; 7.05 with EPHB2. Also, the phosphorylation enrichment in the data set with Fer (mouse) was 1.2; with c-Abl (mouse), 0.801; with Hck, 1.65; in the data set with FGFR1, 1.17; with Fyn it was 2.59; with EPHB1, 7.05. In the data set with Fes, the phosphorylation enrichment stood at 0.81.
Consider VMSGPYELKAL [IL1B_Y140], for which the SH2 binding enrichment stood at 0.533 with c-Src SH2, 1.52 with SHP2-C SH2 and 0.92 with Grb2 SH2. Besides, the phosphorylation enrichment with Jak2 turned out to be 0.463; with FGFR3, 0.57; in the data set with AncSZ, 0.51; in the data set on c-Src, 0.873; with MERTK it was 0.351; with EPHB2, 0.512. For the same sequence, the phosphorylation enrichment in the data set with Fer (mouse) stood at 0.447; in the data set with c-Abl (mouse), 0.481; with Hck, 0.491; with FGFR1, 0.419; with Fyn, 0.564; with EPHB1, 0.303. Moreover, in the data set with Fes, the phosphorylation enrichment is 0.622.
